# Data from patent US20210340225A1.
# Columns and labels:
# [1] = target: prefusion stabilised SARS-CoV spike ectodomain trimer, residues 1-1160, two proline substitutions, T (SARS-CoV); test: ELISA, 47D11 titrated on coated spike ectodomain
# [2] = target: prefusion stabilised SARS-CoV spike ectodomain trimer, residues 1-1160, two proline substitutions, T (SARS-CoV); test: ELISA: spike ectodomain coated on the plate, 47D11 titrated, OD450nm
substance,measurement,setting,value
47D11 fully human IgG1 monoclonal antibody,EC50 (read off the curve),[1],0.2 nM
same,EC50 (read off the curve),[2],0.2 nM
